{"source": "patent US6060588", "about": "“Bap-1 proteins” (COR Therapeutics, Inc., dated 2000)", "binders": {"B1": {"name": "clone 126-2 (partial cDNA of the mouse homologue of Bap-1, fused to the VP16 activation domain) (other)", "chain": "SGAEDNGDSSHCSNASTHSNQEAGPSNKRTKTSDDSGLDLDNNNAGVAIDPVMDGASEIELVFRPHPTLMEKDDSAQTRYIKTSGNATVDHLSKYLAVRLALEELRSKV"}}, "biological_target": "GAL4 DNA binding protein only (pGBT9) (Saccharomyces cerevisiae (strain ATCC …, UniProt P04386))", "assay": "yeast two-hybrid, mating with control baits", "data": [{"binder": "B1", "values": [{"measurement": "binding result", "value": "no binding"}]}]}
